Entries after “also recorded” stand apart in the source; their conditions may differ. Blank lines part the entries; values can stand above or below the molecule they belong to. Peptide text beside a SMILES is read from it.
Experiments:
[1] = test system: binary FGFR-Klotho complexes (FGFR1c, FGFR3c, or FGFR4); assay: Co-immunoprecipitation based competition assay, HEK293-Klotho lysates; type: binding
From the text: Co-immunoprecipitation may also be used to determine that an agent specifically binds the binary FGFR-Klotho complex. One aspect of the present invention utilizes co-immunoprecipitation studies. Subconfluent cultures of a HEK293 cell line ectopically expressing the FLAG-tagged membrane-spanning form of murine Klotho were transfected with expression vectors for V5-tagged FGFR1c, FGFR3c, or FGFR4. Two days later, the cells were lysed, and FGFR-Klotho complexes were isolated from cell lysate using anti-V5 agarose beads. The beads were then incubated with either FGF23^180-251 or FGF23^28-251 alone, or with mixtures of FGF23^28-251 with either increasing FGF23^180-251 or increasing FGF23^180-205. Bead-bound proteins were resolved on SDS-polyacrylamide gels, transferred to nitrocellulose membranes, and labeled using antibodies to Klotho, FGF23, and V5 epitope tag.
In parallel, subconfluent HEK293-Klotho cells (Kurosu et al., “Regulation of Fibroblast Growth Factor-23 Signaling by Klotho,” J Biol Chem 281(10):6120-6123 (2006), which is hereby incorporated by reference in its entirety) were transfected with expression vectors for V5-tagged FGFR1c, FGFR3c, or FGFR4 (Kurosu et al., “Regulation of Fibroblast Growth Factor-23 Signaling by Klotho,” J Biol Chem 281(10):6120-6123 (2006), which is hereby incorporated by reference in its entirety) and binding of FGF23 proteins/peptides to Klotho-FGFR complexes isolated from cell lysate was analyzed. Two days later, the cells were lysed (Kurosu et al, “Suppression of Aging in Mice by the Hormone Klotho,” Science 309(5742):1829-1833 (2005), which is hereby incorporated by reference in its entirety), and FGFR-Klotho complexes were isolated from cell lysate using anti-V5 agarose beads (Sigma-Aldrich) (Kurosu et al., “Regulation of Fibroblast Growth Factor-23 Signaling by Klotho,” J Biol Chem 281(10):6120-6123 (2006), which is hereby incorporated by reference in its entirety). The beads were then incubated with either FGF23^180-251 (1 nM) or FGF23^28-251 (1 nM) alone, or with mixtures of FGF23^28-251 (1 nM) with either increasing FGF23^180-251 (2 to 76 nM) or increasing FGF23^180-205 (0.1 to 10 μM). Bead-bound proteins were resolved on SDS-polyacrylamide gels, transferred to nitrocellulose membranes, and labeled using antibodies to Klotho (KM2119, (Kato et al., “Establishment of the Anti-Klotho Monoclonal Antibodies and Detection of Klotho Protein in Kidneys,” Biochemical Biophysical Res Communications 267(2):597-602 (2000), which is hereby incorporated by reference in its entirety)), FGF23 (R&D systems), and V5 epitope tag (Invitrogen).

[2] = test system: Sprague-Dawley rats; assay: Plasma and urine phosphate in Sprague-Dawley rats after IV injection; type: in vivo, rat; details: IV 0.1 μg kg body weight^−1, 3 h, healthy rats
From the text: The anti-phosphaturic activity of FGF23 C-terminal peptides was examined in normal Sprague-Dawley rats and in Hyp mice, a mouse model of human X-linked hypophosphatemia (XLH) (Beck et al., “Pex/PEX Tissue Distribution and Evidence for a Deletion in the 3′ Region of the Pex Gene in X-linked Hypophosphatemic Mice,” J Clin Invest 99(6):1200-1209 (1997), Eicher et al., “Hypophosphatemia: Mouse Model for Human Familial Hypophosphatemic (Vitamin D-resistant) Rickets,” Proc Natl Acad Sci USA 73(12):4667-4671 […], Strom et al., “Pex Gene Deletions in Gy and Hyp Mice Provide Mouse Models for X-linked Hypophosphatemia,” Hum Mol Genet. 6(2):165-171 (1997), which are hereby incorporated by reference in their entirety). The animals were fed a complete, fixed formula diet containing 0.94% phosphate. Anesthetized rats (220-250 g body weight) were administered IV either FGF23^28-251 (0.1 μg kg body weight^−1) or FGF23^180-251 (0.1 μg kg body weight^−1) or vehicle. Before and 3 h after the injection, blood was drawn from the carotid artery and urine was collected through bladder catheterization. Plasma and urine chemistry of animals were analyzed using Vitros Chemistry Analyzer (Ortho-Clinical Diagnosis). 10- to 15-week old Hyp mice were fasted for 8-12 h before administering IP either FGF23^180-251 (1 mg) or FGF23^180-205 (860 μg) or vehicle. Before and 2 h, 4 h, 8 h, and 24 h after the injection, urine and serum samples were collected. Phosphate concentrations in urine and serum were determined using Phosphorus Liqui-UV Test (Stanbio Laboratory), and urine creatinine levels were measured using DetectX™ Urinary Creatinine Detection Kit (LuminosAssays).

[3] = co-immunoprecipitation competition

Molecule: CSCC[C@H](NC(=O)[C@H](CCCNC(=N)N)NC(=O)[C@H](C)NC(=O)[C@H](CCCNC(=N)N)NC(=O)[C@@H]1CCCN1C(=O)[C@H](CCCCN)NC(=O)[C@H](CC(C)C)NC(=O)[C@@H](NC(=O)[C@H](CC(N)=O)NC(=O)[C@H](CC(C)C)NC(=O)[C@@H]1CCCN1C(=O)[C@H](CC(=O)O)NC(=O)[C@H](CCCNC(=N)N)NC(=O)[C@H](CCC(=O)O)NC(=O)[C@H](CO)NC(=O)[C@H](CC(=O)O)NC(=O)[C@H](CC(=O)O)NC(=O)[C@H](CCC(=O)O)NC(=O)[C@H](C)NC(=O)[C@@H](N)CO)C(C)C)C(=O)N[C@H](C(=O)N1CCC[C@H]1C(=O)N[C@@H](C)C(=O)N1CCC[C@H]1C(=O)N[C@@H](C)C(=O)N[C@@H](CO)C(=O)O)[C@@H](C)O [FGF23^180-205] (H-SAEDDSERDPLNVLKPRARMTPAPAS-OH; N-terminus and C-terminus assumed)
inhibition of binding (co-precipitation) of FGF23^28-251 with binary FGFR-Klotho complexes [1, 3]: able to inhibit binding; also recorded: inhibited co-precipitation
reduced potency compared to the FGF23^180-251 peptide [1, 3]: over 100 fold

molar excess that completely blocked binding of FGF23^28-251 to the FGFR-Klotho complex ([1]; FGF23^28-251 1 nM): 76 fold molar excess
inhibition of binding (co-precipitation) of FGF23^28-251 with binary FGFR-Klotho complexes [1, 3]: can inhibit binding
B1: FGF23^180-251: 72-amino acid C-terminal tail of human FGF23 (S180 to I251), expressed in E. coli (protein, listed as Homo sapiens)
chain: SAEDDSERDPLNVLKPRARMTPAPASCSQELPSAEDNSPMASDPLGVVRGGRVNTHAGGTGPEGCRPFAKFI
excretion rate and fractional excretion of phosphate [2]: renal phosphate retention; also recorded: decreased
plasma phosphate [2]: induced hyperphosphatemia

B2: FGF23^28-251: human FGF23 (A28 to I251), bioactive full-length ligand expressed in E. coli (protein, listed as Homo sapiens)
chain: ASPLLGSSWGGLIHLYTATARNSYHLQIHKNGHVDGAPHQTIYSALMIRSEDAGFVVITGVMSRRYLCMDFRGNIFGSHYFDPENCRFQHQTLENGYDVYHSPQYHFLVSLGRAKRAFLPGMNPPPYSQFLSRRNEIPLIHFNTPIPRRHTRSAEDDSERDPLNVLKPRARMTPAPASCSQELPSAEDNSPMASDPLGVVRGGRVNTHAGGTGPEGCRPFAKFI
excretion rate and fractional excretion of phosphate [2]: increased
plasma phosphate [2]: significant decrease; also recorded: induced hypophosphatemia
